Source: PMC9456106, “PET Probes for Preclinical Imaging of GRPR-Positive Prostate Cancer: Comparative Preclinical Study of [^68Ga]Ga-NODAGA-AMBA and [^44Sc]Sc-NODAGA-AMBA” (International Journal of Molecular Sciences, 2022)

Assays:
[1] = Pharmacokinetics (blood clearance) in healthy control mice; assay type: in vivo; conditions: healthy control CB17 SCID mice, i.v.
Experimental: (§1) For pharmacokinetic studies, healthy control CB17 SCID mice (n = 12) were injected intravenously with 10.8 ± 1.6 MBq of [^68Ga]Ga-NODAGA-AMBA or [^44Sc]Sc-NODAGA-AMBA under isoflurane anesthesia. Thereafter, approximately 30 μL blood samples were collected from the saphenous vein into a capillary tube at the following time points: 30, 60, 120, and 180 minutes. The volume of the blood was determined using a digital caliper. Blood samples were placed in a γ-counter and the radioactivity of each sample was measured. Results were expressed as a percentage of the injected activity per mL (% ID/mL). For the determination of in vivo serum stability of [^68Ga]Ga-NODAGA-AMBA and [^44Sc]Sc-NODAGA-AMBA, blood samples were taken from the mice at the previously mentioned time points (30, 60, 120, and 180 min). Firstly, the blood samples were centrifuged at 4°C, 10,000 rpm for 5 min. Thereafter, 50 μL samples were taken from the supernatant and mixed with ice-cold abs. ethanol (50 μL) and centrifuged again at 4°C, 10 000 rpm for 5 min. The supernatants were analyzed by analytical radio-HPLC. In all cases, the radio-HPLC chromatograms were compared to the original chromatograms of the radiotracers to find any metabolite forms.

[2] = In-vitro stability in mouse plasma, Na2EDTA and oxalic acid (radio-HPLC); assay type: in vitro ADME; conditions: mixed with mouse plasma, oxalic acid
Experimental: For in-vitro stability measurements, the labelled compounds were mixed with mouse plasma, Na2EDTA, and oxalic acid. Samples were injected at different time points to the HPLC with and without a column.
After 15 and 90 min incubation time, a 50 µL sample was taken and 50 µL abs. EtOH was added to the aliquots. Then, the samples were centrifuged (20.000 rpm, 5 min), and the supernatant was removed and diluted with the eluent of HPLC. This was followed by the performance of the analytical measurements.

[3] = In-vivo stability by analytical radio-HPLC of blood samples; design: species or system CB17 SCID mice; conditions: healthy mice, samples at 30, 60, 120, 180 min
Experimental: as §1

PC-3 tumors = assay: Ex-vivo biodistribution of PC-3 tumor-bearing mice; assay type: in vivo, CB17 SCID mice; conditions: for accumulation in PC3 tumors, blocked: 15 mg/kg BBN blocking, 15 mg/kg
Experimental: For animal experiments, 12-week-old female CB17 SCID (n = 64) were used. For the induction of GRPR-expressing tumor model, mice were anesthetized with a dedicated small animal anesthesia device (Tec3 Isoflurane Vaporizer, Eickemeyer Veterinary Equipment, Sunbury-on-Thames, UK) applying 3% isoflurane (Forane, AbbVie), 0.4 L/min O2, and 1.4 L/min N2O, and 5 × 10^6 PC-3 tumor cells in 0.9% NaCl (100 µL) were injected subcutaneously into the left shoulder area of CB17 SCID mice. In-vivo and ex-vivo experiments were carried out 14 ± 1 days after subcutaneous injection of tumor cells at the tumor volume of approximately 86 mm^3.
(§2) Thirty, 60, 120, and 180 min after the intravenous injection of 11.3 ± 1.4 MBq [^68Ga]Ga-NODAGA-AMBA or [^44Sc]Sc-NODAGA-AMBA healthy control and PC-3 tumor-bearing mice were euthanized with 5% Forane, sacrificed, and tissue samples were taken from the selected organs. The weight and the radioactivities of both the tumors and normal tissues were measured with calibrated gamma counter, and the uptake was expressed as %ID/g tissue.
For blocking experiments, PC-3 tumor-bearing mice were injected intravenously with 15 mg/kg of BBN (Sigma-Aldrich) 30 min prior to the injection of 11.3 ± 1.4 MBq [^68Ga]Ga-NODAGA-AMBA or [^44Sc]Sc-NODAGA-AMBA and in-vivo and ex-vivo organ distribution studies were performed as described above.

[4] = Ex-vivo biodistribution in healthy control mice; design: species or system CB17 SCID mice; conditions: i.v.; for accumulation in the adrenal glands / accumulation in the kidneys / accumulation in the pancreas / accumulation in the urine: 30-180 min, approx.; for radiotracer uptake in blood, liver, spleen, gastrointestinal tract and thoracic organs: each investigated time point
Experimental: as §2

[5] = Octanol/water partition coefficient (logP); assay type: physicochemical; conditions: 1-octanol/water, triplicates
Experimental: For the determination of LogP value and the in-vitro serum stability, the same protocol was used as was described earlier by our research group. Briefly, for the determination of the partition coefficient (logP), 10 µL of [^68Ga]Ga-NODAGA-AMBA or [^44Sc]Sc-NODAGA-AMBA solution (approximately 5 MBq) was mixed with 500 µL of 1-octanol and 490 µL of water in a test tube. To reach equilibrium state, the mixture was firmly stirred and then centrifuged (20.000 rpm, 5 min). One-hundred microliters of the samples were pipetted into vials from each layer, and the radioactivity of the fractions was determined with a calibrated gamma counter (Perkin-Elmer Packard Cobra, Waltham, MA, USA). The measurements were performed in triplicates for both labelled compounds.

Row | Compound | half-life in the blood [1] | RCP, in-vitro stability ([2]; 15 min) | RCP, in-vitro stability ([2]; 90 min) | in-vivo stability [3] | accumulation in PC3 tumors, blocked (PC-3 tumors; 60 min) | accumulation in PC3 tumors (PC-3 tumors; 60 min after i.v. injection) | accumulation in PC3 tumors, blocked (PC-3 tumors; 120 min) | accumulation in PC3 tumors (PC-3 tumors; 120 min after i.v. injection) | accumulation in the adrenal glands [4] | accumulation in the kidneys [4] | accumulation in the pancreas [4] | accumulation in the urine [4] | radiotracer uptake in blood, liver, spleen, gastrointestinal tract and thoracic organs [4] | octanol/water partition coefficient (logP) [5]
1 | CSCC[C@H](NC(=O)[C@H](CC(C)C)NC(=O)[C@H](Cc1c[nH]cn1)NC(=O)CNC(=O)[C@@H](NC(=O)[C@H](C)NC(=O)[C@H](Cc1c[nH]c2ccccc12)NC(=O)[C@H](CCC(N)=O)NC(=O)c1ccc(NC(=O)CNC(=O)CCC(C(=O)O)N2CCN(CC(=O)O)CCN(CC(=O)O)CC2)cc1)C(C)C)C(N)=O (stereo partly shown) [[^68Ga]Ga-NODAGA-AMBA] [metal not drawn] | less than 30 minutes | approximately 92% | approximately 85% | remained stable | 0.60 ± 0.22 %ID/g | 3.78 ± 0.93 %ID/g | 0.48 ± 0.14 %ID/g | 3.29 ± 1.20 %ID/g | 0.5–3 %ID/g | 2–8 %ID/g | 1–4 %ID/g | 250–450 %ID/g | Low radiotracer uptake | −2.75 ± 0.18
2 | CSCC[C@H](NC(=O)[C@H](CC(C)C)NC(=O)[C@H](Cc1c[nH]cn1)NC(=O)CNC(=O)[C@@H](NC(=O)[C@H](C)NC(=O)[C@H](Cc1c[nH]c2ccccc12)NC(=O)[C@H](CCC(N)=O)NC(=O)c1ccc(NC(=O)CNC(=O)CCC(C(=O)O)N2CCN(CC(=O)O)CCN(CC(=O)O)CC2)cc1)C(C)C)C(N)=O (stereo partly shown) [[^44Sc]Sc-NODAGA-AMBA] [metal not drawn] | less than 30 minutes | over 98% | over 98% | remained stable | 0.79 ± 0.16 %ID/g | 4.56 ± 0.45 %ID/g | 0.69 ± 0.17 %ID/g | 4.14 ± 0.47 %ID/g | 0.5–3 %ID/g | 2–8 %ID/g | 1–4 %ID/g | 250–450 %ID/g | Low radiotracer uptake | −2.81 ± 0.14
